Test results: the nanobody polyreactivity screen of Harvey et al. (2022)

Assay: yeast display, Sf9 membrane polyspecificity reagent, FACS + sequencing; frameworks hold sequencing errors
In short: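 Using colony PCR, genes from sorted yeast display clones were amplified, then sequenced on MiSeq at 2 × 250 and filtered by CDR length. The clones had been stained with 10% biotinylated, detergent-solubilized Sf9 membrane reagent for 1 hour at 4 °C and sorted by FACS into low and high (top ~1%) gates on anti-HA and streptavidin fluorescence. Polyreactivity labels come from the gate of origin.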

Sequence | polyreactivity (PSR sort gate)
QVQLVESGGGLVQAGGSLRLSCPASGFTFYRYAMGWYRQSPGKEREFVAAITWSGGSTYYADSVKGRFTISRDNAKNTVYLQMNSLKPEDTAVYYCAAYVALDGTREYDYWGQGTQVTVSS | high polyreactivity
QVQLVESGGGLVQAGGSLRLSCPASGGTFSFYTMGGYRQSPGKEREWVAAIDSTGRTNYADSVKGRFTISRDYPKNTVYLQMNRLIPEDTAVYYCAAVSPTYPYTFYRYNYWGQGTQVTVSS | low polyreactivity
QVQLVESGGGLVQAGGSLRLSCPASGIIFKGYAMGWYRQAPGKERELVAAISQSGGSTYYADSVKGRFTISRDNAKNTVYLQMNSLKPEDTAVYYCNARYSRVVPRYYYWGQGTQVTVSS | high polyreactivity
QVQLVESGGGLVQAGGSLRLSCPASGIIFNDYAMGWYRQAPGKEREMVAAITSNGDNTYYADSVKGRFTISRDNAKNTVYLQMNSLKPEDTAVYYCAVDGSFAADFDNYLEEYGYWGQGTQVTVSS | low polyreactivity
QVQLVESGGGLVQAGGSLRLSCPASGIIFNLYAMGWYRQAPGKERELVAAISWSGGSTDYADSVKGRFTISRDNAKNTVYLQMNSLKPEDTAVYYCATSFLYPYFDEDDYWGQGTQVTVSS | high polyreactivity
QVQLVESGGGLVQAGGSLRLSCPASGITFGSYAMGWYRQAPGKERELVAAITSGGGTNYADSEKGRFTISRDNAKNTVYLHMNSLKPEDTAGYYCAARYYYLGTRYGYWGQGTQVTVSS | low polyreactivity
QVQLVESGGGLVQAGGSLRLSCPASGITVTAYAMGWYRQAPGKERELVATINSTGITNYADSVKGRFTISRDNAKNTVYLQMNSLKPEDTAVYYCAADLMDSSSYDGMDYWGQGTQVTVSS | low polyreactivity
QVQLVESGGGLVQAGGSLRLSCPASGLIIGVYAMGWYRQEPGKERELVAAITDGGSTYYADSVKGRFTISRDNAKNTVYLQMNSLKPEDTAVYYCNAEFRSSDYDYWGQGTQVTVSS | low polyreactivity
QVQLVESGGGLVQAGGSLRLSCPASGLNFTSYAMGWYRQAPGKERELVAAITWSGSSTYYADSVKGRFTISRDNAKNTVYLQMNSLKPEDTAVYYCAAYRYGRIYRQYAYDYWGQGTQVTVSS | high polyreactivity
QVQLVESGGGLVQAGGSLRLSCPASGNIFGNNAMGWYRQAPGKERELVAAIDGSGGSTYYADSVKGRFTISRDKAKNTVYLQMNSLKPEDTAVYYCAKTAVIWRTWRTVPSPGYHFGYWGQGTQVTVSS | low polyreactivity
QVQLVESGGGLVQAGGSLRLSCPASGRIFLGNLMGWYRQAPGKERELVAAISWSGGSTYADSVKGRFTISRDNAKNTVYFQMNSLKPEDTAVYYCAKDEGTFYNSYDYWGQGTQVTVSS | low polyreactivity
QVQLVESGGGLVQAGGSLRLSCPASGRIFPRYAMGWYRPAPGKERELVARITRRGGITYYADSVKGRFTISRDNAQNTVYLEMNSLKPEDTAVYYCNVDYYRGGDFSYGYDYWGQGTQLTVSS | high polyreactivity
QVQLVESGGGLVQAGGSLRLSCPASGRIFYYNAIGWYRQAPGKERELVATITRAGGTYYADSVKGRFTISRDNAKNTVYLQMNSLKPEDTAVYYCAKRHPIVDDYKGDYWGQGTQVTVSS | low polyreactivity
QVQLVESGGGLVQAGGSLRLSCPASGRIIAWYAMGWYRQAPGKERELVAVITSSGGSTYYADSVKGRFTISRDNAKNTVYFMMNRLKPEDTAVYYCARKVVSPAWSHDFYYWGLGTQVTVSS | low polyreactivity
QVQLVESGGGLVQAGGSLRLSCPASGRTFPGYSKGWYRQAPGKERELVATITGNGGSTYYADSVKGRFTISRENAKNTVYLQMNSLKPEDTAVYYCAGGRRRPYVRAYRGTDYWVQGTQVTVSS | low polyreactivity
QVQLVESGGGLVQAGGSLRLSCPASGRTFYKNAMGWYRQAPGKERELVAAITSGGSTNYADSVKGRFTISRDNAKNTVYLQMNSLKSEDTAVYYCAAQQFPYYRSRYSYINKYDYWGQGTQVTVSS | high polyreactivity
QVQLVESGGGLVQAGGSLRLSCPASGSIFDPYAMGWYRQAPGKERELVAAITASGSSTYYADSVKGRFTISRDNAKNTVYLQMNSLKPEDTAVYYCAADRAKWEYLLSWLGYDYWGQGTQVTVSS | low polyreactivity
QVQLVESGGGLVQAGGSLRLSCPASGSIFFYAMGWYRQAPGKERELVADITYTGGSKYADSVKGRFTISRDNAKNTVYLQMNSLKPEDTAFYYCANLDGGLFDYWGQGTQVTVSS | low polyreactivity
QVQLVESGGGLVQAGGSLRLSCPASGSIFGSYAMGWYRQAPGKERELVASITRVDSTNYADSVKGRFTISRDNAKNTVYLQMNRLKPEDTAVYYCNAGKTIDYRDGVGYDHWGQGTQVTVSS | low polyreactivity
QVQLVESGGGLVQAGGSLRLSCPASGSILYSYAMGWYRQAHGKERELVAAITGDGASTNYADSVKGRFTISRDNAKNTVYFQMNSLKPEDTAVYYCNAGRESDDVYEGSQRIGQFDYWGQGTLVTVSS | low polyreactivity
QVQLVESGGGLVQAGGSLRLSCPASGSISYFNAMGGYRQAPGKERELVAAITSCGSTYYADSVKGRFTISRDNAKNSVYLQMNSLKPEDTAVYYCAADDSWFYYGYGYWGQGTQVTVSS | low polyreactivity
QVQLVESGGGLVQAGGSLRLSCPASGSNLSRYAMGWYRQAPGKERELVAGITWRGGSTYYADSVKGRFTISRDNAKNTVYLQMNSLKPEDTAVYYCARRYGGYKWVRAYYYWGQGTQVTLSS | high polyreactivity

Sequence | polyreactivity (PSR sort gate)
QVQLVESGGGLVQAGGSLRLSCPSSGIIFYYYAMGWYRQAPGKERELVAAINFSVGGTYYADSVKGRFTISRDNAKNTVYLQMNSEKPEDTEVYYCAKDIVIPATYVEYDYWGQGTQVTVSS | low polyreactivity
QVQLVESGGGLVQAGGSLRLSCSASGFIFDVYAMGWYRPAPGKERELVAAISRSGGSTYYADSVKGRFTISRDNAKNTVYLQMNSLKPEDTAVYYCATVLLNNVDYDYWGQGTQVTVSS | low polyreactivity
QVQLVESGGGLVQAGGSLRLSCSASGFIFITVNAMGWYRQAPGKEREFVAAITRSGTGTYYADSVKGRFTISRDHAKNTVYLQMNSLKPEDTAVYYCAADATSTGAYDYWGQGTQVTVSS | low polyreactivity
QVQLVESGGGLVQAGGSLRLSCSASGFIFVDYAMGWYRQSPGKERELVAAISRSGGSTYYADSVKGRFTISRDNAKNTVYLQMNSLKPEDTAVYYCAAKYPFYAKNGYWGQGTQVTVSS | high polyreactivity
QVQLVESGGGLVQAGGSLRLSCSASGFILLAYAMGWYRQAHGKERELVAAITSGGSTHYADSVKGRFTISRDNAKNTVYLQMNSLKPEDTAVYYCANDTVFRYSGNTYGYWGQGTQVTVSS | low polyreactivity
QVQLVESGGGLVQAGGSLRLSCSASGFTFDSYAMGWYRQAPGKERELVAAITSDGSTYYADSVKGRFTISRDNAKNTVYLQMNSLKPEDTAVYYCAADGRYFRAVFRLYDYWGQGTQVTVSS | low polyreactivity
QVQLVESGGGLVQAGGSLRLSCSASGFTYDYYAMGWYRQAPGKERELVATISVSAVSTSYADSVKGRFTISRDNAKNTVYLQMNSLKPEDTAVYYCAASRGPYYYHYSGSLKSFDYWGQGTQVTVSS | low polyreactivity
QVQLVESGGGLVQAGGSLRLSCSASGGIFWVYAMGWYRQAPGKERELVAAISNSDTSTSYADSVKGRFTISRDNAKNTVYLQMNSLKPEDTAVYYCNADSPSLSGDYWGQGTQVTVSS | low polyreactivity
QVQLVESGGGLVQAGGSLRLSCSASGIIFDVNALGWYRQSPGKERELVADITYSVGSTSYADSVKGRFTISRDNAKNTVYLQMNSLKPEDTAVYYCAAVYSHSGGEGIKYDYWGQGTQVTVSS | low polyreactivity
QVQLVESGGGLVQAGGSLRLSCSASGIIFRGYAMGWYRQAPRKERELVAGITSGGDTNYADSVKGRFTISRDNAKNTVYLQMNSLKPEETAVYYCNVALQAKGMGYWGQGTQVTVSS | low polyreactivity
QVQLVESGGGLVQAGGSLRLSCSASGIIFSEYAMVWYRQAPGKERELVAAISKSSGSTRYADSVKGRFTISRDNAKNTVYLQMNSLKPEVTAVYYCAAVYRGVVVYGYWGQGTQVTVSS | high polyreactivity
QVQLVESGGGLVQAGGSLRLSCSASGITSKNYAMGCYRQAPGKERELVAVISGRGGSTYYADSVKGRFTISRDNAKNTVYLQMNSLKPVDTAVYYCAAYGNQRRGAYPYKYDYWGQGTQVTVSS | high polyreactivity
QVQLVESGGGLVQAGGSLRLSCSASGRFYVINYMGRYRQAPGKERELVAANTWGSSTYADSEKGRFTISRDNAKITVYFQMNSLKQEDTAVYYCSRDVYPSTWEYDYWGQGTQVTVSS | low polyreactivity
QVQLVESGGGLVQAGGSLRLSCSASGRIFQYYAMGWYIKAPGKERELVAAISGRGTSTYYADSVKGRFTISRDNAKNTVYLEMNSLKQEDTAVYYCNADINYKSYFIHTFTIIPYGYWGQGTQVTVSS | low polyreactivity
QVQLVESGGGLVQAGGSLRLSCSASGRIFWDYAMGRYRQAPGKERELVASSSTDGSTYYADSVKGRFTISRDNANNTFYLQMNSLKPEDTAVYYCAARGYRGRMGYWGQGTQVTVSS | low polyreactivity
QVQLVESGGGLVQAGGSLRLSCSASGRISNAMGWYRQAPGKERELVATINSGASTNYADSVKGRFTISRDNAKNTVYLQMNSLKPEDTAVYYCNVAYVYGSFRRRPMGYLGQGTQVTVSS | high polyreactivity
QVQLVESGGGLVQAGGSLRLSCSASGRTFGYNAMGWYRQAPGKEWELVAAIRTIGDSTYYADSVKGRFTISRDNAKNTVYLQMNSLKPEDTAVYYCAARNLRSRYDYWGQGTQVTVSS | high polyreactivity
QVQLVESGGGLVQAGGSLRLSCSASGRTFSRYAMGWYSQAPGTERELVATISRRGGSTYYADSVKGRFTISRDNAKNTVYLQMNSLKPEDTAVYYCAARLYTQYYYWGQGTQVTVSS | high polyreactivity
QVQLVESGGGLVQAGGSLRLSCSASGSIFDAYAMGWYRQAPGKEREMVAAISKGGTRTYYADSVKGRFTISRDNAKNTVYLQMNSLIPEDTAFYYCNSYYRREPDDGDYDYWGQGTQVTVSS | high polyreactivity
QVQLVESGGGLVQAGGSLRLSCSASGSIFPHYAMGWYRQAPGKERELVAAISRSGTSTYYADSVKGRFTISRDNAKNTVYLQMNSLKPEDTAVYYCNAYQVYTRTYGYCGQGTQVTVSS | high polyreactivity
QVQLVESGGGLVQAGGSLRLSCSASGSIFVRNFMGGYRQSPGKERELVAGISWNGGSTFYADSVKGRFTISRDNAKNTVYLQMNSLKPEDTAVYYCAARGRHSVYYSFPYYYWGQGTQVTVSS | low polyreactivity
